Source: patent publication JP2012050437A (dated 2012)
Numbering of substitutions follows the chain as printed. Blank lines part the entries; values can stand above or below the binder they belong to.

Legend:
[1] = biological target: T1, aggregated synthetic Aβ1-42 (human, UniProt P05067 672-713); assay: quantitative Aβ(1-42) aggregate binding assay, COS conditioned medium
T1 construct: domain: Aβ1-42; Synthetic peptide, aggregated, coated for ELISA; also called 凝集Aβ1−42; Aβ(1-42) aggregate

[2] = biological target: T1, aggregated synthetic Aβ1-42; assay: ELISA on aggregated synthetic Aβ1-42
[3] = biological target: T1, aggregated synthetic Aβ1-42; assay: ELISA on aggregated Aβ1-42, streptavidin-HRP as reporter; confirmed (sentence runs on into paragraph 399)

binding result [1]: binds
B4: humanized 12A11 antibody, version 6.4 (antibody, V domains shown)
VH: QVQLVESGGGVVQPGRSLRLSCAFSGFSLSTSGMSVGWIRQAPGKGLEWVAHIWWDDDKYYNPSLKSRFTISKDTSKNTLYLQMNSLRAEDTAVYYCARRTTTADYFAYWGQGTTVTVSS
VL: DVVMTQSPLSLPVTPGEPASISCRSSQSIVHSNGNTYLEWYLQKPGQSPQLLIYKVSNRFSGVPDRFSGSGSGTDFTLKISRVEAEDVGVYYCFQSSHVPLTFGQGTKLEIK
notes: Variable regions only; also called h12A11v6.4; バージョン6.4

binding result [1]: binds
B6: humanized 12A11 antibody, version 5.1 (antibody, V domains shown)
VH: B4 VH with S28T, F69L, L80V
VL: B4 VL
notes: Variable regions only; also called h12A11v5.1; バージョン5.1

binding result [1]: binds
B7: humanized 12A11 antibody, version 6.3 (antibody, V domains shown)
VH: B4 VH with S28T, V50L
VL: B4 VL
notes: Variable regions only; also called h12A11v6.3; バージョン6.3

binding result [1]: binds
B10: humanized 12A11 antibody, version 5.4 (antibody, V domains shown)
VH: B4 VH with L80V
VL: B4 VL
notes: Variable regions only; also called h12A11v5.4; バージョン5.4

binding result [3]: binds
B14: recombinant mouse 12A11 Cγ2a (isotype-switched 12A11) (antibody, V domains shown)
VH: QVTLKESGPGILKPSQTLSLTCSFSGFSLSTSGMSVGWIRQPSGKGLEWLAHIWWDDDKYYNPSLKSRLTISKDTSRNQVFLKITSVDTADTATYYCARRTTTADYFAYWGQGTTLTVSS
VL: DVLMTQTPLSLPVSLGDQASISCRSSQSIVHSNGNTYLEWYLQKPGQSPKLLIYKVSNRFSGVPDRFSGSGSGTDFTLKISRVEAEDLGIYYCFQSSHVPLTFGAGTKLELK
modifications: biotin conjugated (in the ELISA and the competition assay)
notes: also called m12A11Cγ2a; biotin-conjugated m12A11Cγ2a

Further lines, the binder ahead of its results:

B1: humanized 12A11 antibody, version 6.1 (antibody, V domains shown)
VH: B4 VH with S28T, L80V
VL: B4 VL
notes: Variable regions only; also called h12A11v6.1; バージョン6.1
binding result [1]: binds

B2: humanized 12A11 antibody, version 5.3 (antibody, V domains shown)
VH: B4 VH with S28T, V50L, F69L
VL: B4 VL
notes: Variable regions only; also called h12A11v5.3; バージョン5.3
binding result [1]: binds

B3: humanized 12A11 antibody, version 2.1 (antibody, V domains shown)
VH: B4 VH with S28T, T75N
VL: B4 VL
notes: Variable regions only; tested in conditioned medium of COS cells; also called h12A11v2.1; v2.1
binding result [1]: binds

B5: humanized 12A11 antibody, version 5.6 (antibody, V domains shown)
VH: B4 VH with V50L
VL: B4 VL
notes: Variable regions only; also called h12A11v5.6; バージョン5.6
binding result [1]: binds

B8: humanized 12A11 antibody, version 5.5 (antibody, V domains shown)
VH: B4 VH with F69L
VL: B4 VL
notes: Variable regions only; also called h12A11v5.5; バージョン5.5
binding result [1]: binds

B9: humanized 12A11 antibody, version 6.2 (antibody, V domains shown)
VH: B4 VH with S28T, F69L
VL: B4 VL
notes: Variable regions only; also called h12A11v6.2; バージョン6.2
binding result [1]: binds

B11: humanized 12A11 antibody, version 5.2 (antibody, V domains shown)
VH: B4 VH with S28T, V50L, L80V
VL: B4 VL
notes: Variable regions only; also called h12A11v5.2; バージョン5.2
binding result [1]: binds

B12: humanized 12A11 antibody, version 3 (antibody, V domains shown)
VH: B4 VH with S28T, K73R, T75N
VL: B4 VL
notes: Variable regions only; tested in conditioned medium of COS cells; also called h12A11v3; v3
binding result [1]: binds

B13: murine monoclonal antibody 12A11 (isotype IgG1) (antibody, V domains shown)
VH: B14 VH
VL: B14 VL
notes: Mouse IgG1 from the hybridoma; also called mAb 12A11; m12A11
binding result [2]: binds
